In patent publication US20250381289A1 (Genmab, published 2025):

Experiments:
[1] = target: T1, human HER4 recombinant protein (human, UniProt Q15303 26-649, limits assumed); assay: ELISA, coated human HER4, anti-human Fc-HRP
T1 sequence (looked up): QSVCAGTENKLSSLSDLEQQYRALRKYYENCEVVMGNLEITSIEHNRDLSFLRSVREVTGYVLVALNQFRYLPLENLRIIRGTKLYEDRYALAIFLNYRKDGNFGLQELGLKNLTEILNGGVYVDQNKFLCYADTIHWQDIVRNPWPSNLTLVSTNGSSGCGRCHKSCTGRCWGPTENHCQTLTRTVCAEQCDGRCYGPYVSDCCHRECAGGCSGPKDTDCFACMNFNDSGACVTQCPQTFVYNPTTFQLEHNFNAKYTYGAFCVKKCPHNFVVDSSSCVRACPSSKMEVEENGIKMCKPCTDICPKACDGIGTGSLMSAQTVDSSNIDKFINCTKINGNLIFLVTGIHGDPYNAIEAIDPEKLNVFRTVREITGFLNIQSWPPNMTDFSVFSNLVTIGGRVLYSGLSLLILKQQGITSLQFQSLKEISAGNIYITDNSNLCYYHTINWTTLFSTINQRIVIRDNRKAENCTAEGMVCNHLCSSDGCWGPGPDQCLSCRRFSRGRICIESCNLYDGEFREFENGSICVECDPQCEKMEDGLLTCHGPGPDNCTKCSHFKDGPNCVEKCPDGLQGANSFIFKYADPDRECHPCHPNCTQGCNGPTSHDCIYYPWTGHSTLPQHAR
Protocol: (§1) Binding specificity was tested by ELISA according to the standard protocol. Specifically, 96-well plates were coated with 100 ng/well human EGFR, human HER2, human HER3, human HER4, human cMET, human Sema3A recombinant protein in PBS, incubated overnight at 4° C. Plates were washed twice by TBS+0.05% Tween20. 200 μL blocking buffer (2% BSA in PBS) was added to each well and incubated at 37° C. for 2 h. After wash, Serial diluted antibodies were added to the ELISA plate with 100 μL per well and incubated for 1 h at room temperature. Then plates were washed for 3 times. HRP conjugated anti-human Fc antibody solution (Abcam, ab98624) was added to the plate with 100 μL per well. The plates were incubated at room temperature for 1 h and then washed for 3 times. […] Finally, read the absorbance at A₄₅₀ and A₆₃₀.

[2] = target: T2, human Sema3A recombinant protein (human, UniProt Q14563 21-771, limits assumed); assay: ELISA, coated human Sema3A, anti-human Fc-HRP
T2 sequence (looked up): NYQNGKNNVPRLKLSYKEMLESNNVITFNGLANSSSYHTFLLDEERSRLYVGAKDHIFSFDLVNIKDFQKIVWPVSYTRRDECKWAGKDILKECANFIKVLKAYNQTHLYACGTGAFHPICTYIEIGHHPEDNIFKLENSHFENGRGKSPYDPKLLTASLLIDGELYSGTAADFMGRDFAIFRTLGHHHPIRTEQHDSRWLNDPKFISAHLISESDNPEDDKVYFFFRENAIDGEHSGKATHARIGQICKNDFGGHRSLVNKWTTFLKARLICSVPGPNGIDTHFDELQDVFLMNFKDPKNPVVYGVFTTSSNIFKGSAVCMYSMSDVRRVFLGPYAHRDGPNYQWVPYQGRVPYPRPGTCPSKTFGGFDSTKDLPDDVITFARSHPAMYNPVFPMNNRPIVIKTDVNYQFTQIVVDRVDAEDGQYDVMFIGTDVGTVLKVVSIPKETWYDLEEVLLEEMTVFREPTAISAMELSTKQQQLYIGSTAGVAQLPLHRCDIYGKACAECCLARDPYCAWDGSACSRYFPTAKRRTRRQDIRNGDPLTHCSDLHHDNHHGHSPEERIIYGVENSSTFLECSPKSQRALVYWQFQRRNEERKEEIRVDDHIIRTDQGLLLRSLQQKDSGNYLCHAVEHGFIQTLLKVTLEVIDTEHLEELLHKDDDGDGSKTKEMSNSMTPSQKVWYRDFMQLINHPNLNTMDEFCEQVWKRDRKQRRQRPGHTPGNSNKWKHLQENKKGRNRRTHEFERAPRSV
Protocol: as §1

[3] = target: T3, cMET on EGFR and cMET co-expressed tumor cell lines (UniProt P08581 25-1390, limits assumed); assay: flow cytometry, EBC-1 cells (co-express EGFR and cMET; both arms contribute)
T3 construct: whole, on cells
T3 sequence (P08581 25-1390 limits assumed): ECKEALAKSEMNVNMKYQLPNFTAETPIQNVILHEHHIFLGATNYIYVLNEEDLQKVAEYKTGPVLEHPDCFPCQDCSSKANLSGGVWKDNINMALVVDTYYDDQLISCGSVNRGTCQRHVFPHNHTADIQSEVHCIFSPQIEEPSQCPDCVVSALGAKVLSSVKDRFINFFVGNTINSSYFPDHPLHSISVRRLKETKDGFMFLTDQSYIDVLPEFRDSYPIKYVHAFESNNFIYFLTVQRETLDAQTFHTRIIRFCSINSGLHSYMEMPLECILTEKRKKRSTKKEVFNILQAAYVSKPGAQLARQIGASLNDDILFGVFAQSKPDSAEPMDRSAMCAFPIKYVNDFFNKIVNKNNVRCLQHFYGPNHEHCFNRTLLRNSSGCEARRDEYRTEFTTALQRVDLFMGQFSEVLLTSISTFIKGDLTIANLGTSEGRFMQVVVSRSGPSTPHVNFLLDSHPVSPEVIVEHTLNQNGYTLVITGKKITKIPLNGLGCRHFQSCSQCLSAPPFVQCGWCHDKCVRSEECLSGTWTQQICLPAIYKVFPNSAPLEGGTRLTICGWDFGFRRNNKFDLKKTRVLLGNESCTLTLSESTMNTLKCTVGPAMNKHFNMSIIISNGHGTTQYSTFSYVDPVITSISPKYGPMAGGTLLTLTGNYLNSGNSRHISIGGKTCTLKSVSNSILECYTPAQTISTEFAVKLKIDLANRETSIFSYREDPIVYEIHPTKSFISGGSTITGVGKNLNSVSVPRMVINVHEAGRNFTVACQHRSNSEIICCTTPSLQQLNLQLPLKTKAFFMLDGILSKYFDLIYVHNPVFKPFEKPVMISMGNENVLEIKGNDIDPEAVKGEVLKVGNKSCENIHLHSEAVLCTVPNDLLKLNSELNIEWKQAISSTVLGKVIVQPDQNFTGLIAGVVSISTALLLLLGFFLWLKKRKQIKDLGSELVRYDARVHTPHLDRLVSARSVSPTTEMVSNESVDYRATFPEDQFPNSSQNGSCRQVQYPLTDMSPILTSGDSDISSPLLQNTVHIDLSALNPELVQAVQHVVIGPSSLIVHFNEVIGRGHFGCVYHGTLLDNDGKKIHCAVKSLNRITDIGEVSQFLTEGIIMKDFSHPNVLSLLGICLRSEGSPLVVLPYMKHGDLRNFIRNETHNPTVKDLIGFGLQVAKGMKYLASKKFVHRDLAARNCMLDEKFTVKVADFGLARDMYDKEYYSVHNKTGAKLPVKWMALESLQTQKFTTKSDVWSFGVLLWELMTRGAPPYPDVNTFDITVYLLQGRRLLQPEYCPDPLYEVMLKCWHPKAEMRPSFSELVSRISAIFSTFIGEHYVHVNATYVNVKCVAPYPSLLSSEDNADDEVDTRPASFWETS

[4] = target: T4, EGFR on EGFR and cMET co-expressed tumor cell lines (UniProt P00533 25-1210, limits assumed); assay: as above
T4 construct: whole, on cells

[5] = target: human HER2 recombinant protein (human, UniProt P04626 23-652); assay: ELISA, coated human HER2, anti-human Fc-HRP
Protocol: as §1

[6] = target: T3, cMET on EGFR and cMET co-expressed …; assay: flow cytometry, A431 cells (co-express EGFR and cMET; both arms contribute)
[7] = target: T4, EGFR on EGFR and cMET co-expressed …; assay: as above
[8] = target: T3, cMET on EGFR and cMET co-expressed …; assay: flow cytometry, SNU-5 cells (co-express EGFR and cMET; both arms contribute)
[9] = target: T4, EGFR on EGFR and cMET co-expressed …; assay: as above
[10] = target: T5, Human cMET (human); assay: ELISA, coated human cMET, anti-human Fc-HRP
T5 construct: recombinant protein; also called human cMET recombinant protein
T5 sequence (P08581 whole entry): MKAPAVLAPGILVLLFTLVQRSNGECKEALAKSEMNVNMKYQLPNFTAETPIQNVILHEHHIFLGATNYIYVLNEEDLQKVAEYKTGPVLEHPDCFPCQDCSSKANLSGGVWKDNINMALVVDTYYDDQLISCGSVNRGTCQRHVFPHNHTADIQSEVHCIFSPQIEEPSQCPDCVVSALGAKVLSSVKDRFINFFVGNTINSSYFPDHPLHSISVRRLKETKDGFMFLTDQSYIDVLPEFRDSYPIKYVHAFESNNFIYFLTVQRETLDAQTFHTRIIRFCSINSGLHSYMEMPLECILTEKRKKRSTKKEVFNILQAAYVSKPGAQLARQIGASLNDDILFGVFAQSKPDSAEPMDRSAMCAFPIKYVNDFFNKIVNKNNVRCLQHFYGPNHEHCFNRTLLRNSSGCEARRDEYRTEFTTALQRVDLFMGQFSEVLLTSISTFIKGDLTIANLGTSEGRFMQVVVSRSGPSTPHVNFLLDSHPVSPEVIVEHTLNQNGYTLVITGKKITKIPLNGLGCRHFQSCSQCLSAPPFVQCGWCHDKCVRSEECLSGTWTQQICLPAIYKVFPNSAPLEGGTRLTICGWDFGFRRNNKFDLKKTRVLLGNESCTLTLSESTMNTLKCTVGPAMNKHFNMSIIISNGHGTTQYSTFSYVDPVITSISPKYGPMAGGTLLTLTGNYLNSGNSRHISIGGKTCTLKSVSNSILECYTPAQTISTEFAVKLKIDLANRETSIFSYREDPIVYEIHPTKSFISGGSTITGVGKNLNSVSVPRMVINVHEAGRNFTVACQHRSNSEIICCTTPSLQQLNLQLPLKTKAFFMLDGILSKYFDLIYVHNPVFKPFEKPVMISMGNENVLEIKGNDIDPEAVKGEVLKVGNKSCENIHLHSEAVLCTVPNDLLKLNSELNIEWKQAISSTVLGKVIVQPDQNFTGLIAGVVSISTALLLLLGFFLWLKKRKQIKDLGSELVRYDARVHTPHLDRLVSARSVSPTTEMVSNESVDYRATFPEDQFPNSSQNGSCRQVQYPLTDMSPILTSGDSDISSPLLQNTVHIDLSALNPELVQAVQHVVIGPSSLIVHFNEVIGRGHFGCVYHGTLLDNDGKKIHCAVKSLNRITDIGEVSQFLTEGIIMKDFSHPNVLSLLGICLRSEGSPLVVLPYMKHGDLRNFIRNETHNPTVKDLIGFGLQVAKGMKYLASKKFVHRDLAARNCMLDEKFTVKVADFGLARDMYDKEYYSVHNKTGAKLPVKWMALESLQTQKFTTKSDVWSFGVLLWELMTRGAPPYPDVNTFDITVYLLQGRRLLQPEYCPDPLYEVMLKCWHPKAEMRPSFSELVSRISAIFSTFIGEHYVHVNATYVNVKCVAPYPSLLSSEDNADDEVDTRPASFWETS
Protocol: as §1

B1: AZD9592-Ab (bispecific antibody, human IgG1, kappa, lambda)
anti EGFR heavy chain: QVQLVQSGAEVKKPGSSVKVSCKASGGTFSDNDFSWVRQAPGQGLEWMGAIVAVFRTETYAQKFQDRVKITADISTRTTYMELSSLRSEDTAVYYCARRLMSAISGPGAPLLMWGQGTLVTVSSASTKGPSVCPLAPSSKSTSGGTAALGCLVKDYFPEPVTVSWNSGALTSGVHTFPAVLQSSGLYSLSSVVTVPSSSLGTQTYICNVNHKPSNTKVDKRVEPKSVDKTHTCPPCPAPEFEGGPSVFLFPPKPKDTLMISRTPEVTCVVVDVSHEDPEVKFNWYVDGVEVHNAKTKPREEQYNSTYRVVSVLTVLHQDWLNGKEYKCKVSNKALPASIEKTISKAKGQPREPQVYTLPPCREEMTKNQVSLWCLVKGFYPSDIAVEWESNGQPENNYKTTPPVLDSDGSFFLYSKLTVDKSRWQQGNVFSCSVMHEALHNHYTQKSLSLSPGK
anti EGFR light chain: QSALTQPRSVSGSPGQSVTISCTGTSSDVGGYNYVSWYQQHPGKAPKLMIYDVSKRPSGVPDRFSGSKSGNTASLTISGLQAEDEADYYCSSYTSSDTLEIFGGGTKLTVLGQPKAAPSVTLFPPCSEELQANKATLVCLISDFYPGAVTVAWKADSSPVKAGVETTTPSKQSNNKYAASSYLSLTPEQWKSHRSYSCQVTHEGSTVEKTVAPTEVS
anti cMET heavy chain: QVQLVQSGAEVKKPGASVKVSCKASGYTFTDYYIHWVRQATGQGLEWMGWMNPNSGNTGYAQKFQGRVTMTRDTSISTAYMELSSLRSEDTAVYYCARGQGYTHSWGQGTMVTVSSASTKGPSVFPLAPSSKSTSGGTAALGCLVKDYFPEPVTVSWNSGALTSGVHTFPAVLQSSGLYSLSSVVTVPSSSLGTQTYICNVNHKPSNTKVDKRVEPKSCDKTHTCPPCPAPEFEGGPSVFLFPPKPKDTLMISRTPEVTCVVVDVSHEDPEVKFNWYVDGVEVHNAKTKPREEQYNSTYRVVSVLTVLHQDWLNGKEYKCKVSNKALPASIEKTISKAKGQPREPQVCTLPPSREEMTKNQVSLSCAVKGFYPSDIAVEWESNGQPENNYKTTPPVLDSDGSFFLVSKLTVDKSRWQQGNVFSCSVMHEALHNHYTQKSLSLSPGK
anti cMET light chain: DIQMTQSPSTLSASVGDRVTITCRASEGIYHWLAWYQQKPGKAPKLLIYKASSLASGVPSRFSGSGSGTEFTLTISSLQPDDFATYYCQQYSNYPPTFGGGTKLEIKRTVAAPSVFIFPPSDEQLKSGTASVVCLLNNFYPREAKVQWKVDNALQSGNSQESVTEQDSKDSTYSLSSTLTLSKADYEKHKVYACEVTHQGLSSPVTKSFNRGEC
notes: also called RAA22/B09-TM
- binding result [1]: no binding (tested: about 130 nM)
- binding result [2]: no binding (tested: about 120 nM)
- EC50 (read off the curve) [3]: ~1 nM
- EC50 (read off the curve) [4]: ~1 nM
- binding result [5]: no binding (tested: about 130 nM)
- EC50 (read off the curve) [6]: ~10 nM
- EC50 (read off the curve) [7]: ~10 nM
- EC50 (read off the curve) [8]: ~2 nM
- EC50 (read off the curve) [9]: ~2 nM
- EC50 (read off the curve) [10]: ~4 nM
